Among the data in the supplement of paper PMC10567573 are protein stability index values, retold here.

The chains are these.
B1: PTPN9 (parent)
chain: ILFSLPPALDWDSVHVPGPHAMTI
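Further: lentivirally expressed fusions sorted by FACS into six bins by GFP to DsRed ratio, PSI derived from sequencing read proportions per bin multiplied by bin number.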

In the series the parent is B1. Nature of the series: protein stability index of a GFP-peptide fusion (GPS, HEK-293T) (PSI 1-6); higher = more stable. Conditions: c terminus: a fixed tail appended.
For ILFSLPPASDWDSVHVPGPHAMTI [L9S], the protein stability index came to 3.08.

On to ILFSLPPAMDWDSVHVPGPHAMTI [L9M], for which the protein stability index was found to be 2.52.

With ILFSLPPAADWDSVHVPGPHAMTI [L9A], the protein stability index came out at 2.29.

In the case of ILFSLPPAFDWDSVHVPGPHAMTI [L9F], the protein stability index was 2.33.

In the case of ILFSLPPATDWDSVHVPGPHAMTI [L9T], the protein stability index is 3.24.

With ILFSLPPAEDWDSVHVPGPHAMTI [L9E], the protein stability index was found to be 1.93.

On to ILFSLPPACDWDSVHVPGPHAMTI [L9C], for which the protein stability index was 2.52.

As to ILFSLPPANDWDSVHVPGPHAMTI [L9N], the protein stability index amounted to 2.8.

Turning to ILFSLPPARDWDSVHVPGPHAMTI [L9R], the protein stability index was found to be 2.07.

Regarding ILFSLPPADDWDSVHVPGPHAMTI [L9D], the protein stability index was 1.83.

In the case of ILFSLPPAYDWDSVHVPGPHAMTI [L9Y], the protein stability index was 4.25.

As to ILFSLPPAIDWDSVHVPGPHAMTI [L9I], the protein stability index was 1.96.

As for ILFSLPPAGDWDSVHVPGPHAMTI [L9G], the protein stability index stood at 3.71.

For ILFSLPPAWDWDSVHVPGPHAMTI [L9W], the protein stability index is 4.62.

With ILFSLPPAKDWDSVHVPGPHAMTI [L9K], the protein stability index turned out to be 2.63.

In the case of ILFSLPPWLDWDSVHVPGPHAMTI [A8W], the protein stability index came out at 2.68.

For ILFSLPPMLDWDSVHVPGPHAMTI [A8M], the protein stability index is 4.44.

In the case of ILFSLPPKLDWDSVHVPGPHAMTI [A8K], the protein stability index came to 2.87.

Regarding ILFSLPPRLDWDSVHVPGPHAMTI [A8R], the protein stability index was 2.43.

On to ILFSLPPFLDWDSVHVPGPHAMTI [A8F], for which the protein stability index was 3.41.

As to ILFSLPPCLDWDSVHVPGPHAMTI [A8C], the protein stability index was 3.81.

Consider ILFSLPPSLDWDSVHVPGPHAMTI [A8S], for which the protein stability index worked out at 3.4.

In the case of ILFSLPPHLDWDSVHVPGPHAMTI [A8H], the protein stability index stood at 2.5.

Take ILFSLPPDLDWDSVHVPGPHAMTI [A8D]: the protein stability index is 1.92.

On to ILFSLPPILDWDSVHVPGPHAMTI [A8I], for which the protein stability index came to 1.81.

For ILFSLPPGLDWDSVHVPGPHAMTI [A8G], the protein stability index was found to be 2.36.

As for ILFSLPPNLDWDSVHVPGPHAMTI [A8N], the protein stability index was 2.04.

As to ILFSLPPQLDWDSVHVPGPHAMTI [A8Q], the protein stability index amounted to 3.82.

In the case of ILFSLPPTLDWDSVHVPGPHAMTI [A8T], the protein stability index was 3.32.

In the case of ILFSLGPALDWDSVHVPGPHAMTI [P6G], the protein stability index was found to be 1.32.

Take ILFSLFPALDWDSVHVPGPHAMTI [P6F]: the protein stability index was 1.95.

As to ILFSLQPALDWDSVHVPGPHAMTI [P6Q], the protein stability index is 2.46.

Regarding ILFSLMPALDWDSVHVPGPHAMTI [P6M], the protein stability index came to 1.89.

As for ILFSLYPALDWDSVHVPGPHAMTI [P6Y], the protein stability index stood at 2.91.

For ILFSLRPALDWDSVHVPGPHAMTI [P6R], the protein stability index turned out to be 3.66.

Turning to ILFSLAPALDWDSVHVPGPHAMTI [P6A], the protein stability index was 3.2.

Take ILFSLIPALDWDSVHVPGPHAMTI [P6I]: the protein stability index is 3.44.

As for ILFSLWPALDWDSVHVPGPHAMTI [P6W], the protein stability index turned out to be 2.15.

ILFSLLPALDWDSVHVPGPHAMTI [P6L]: the protein stability index is 4.02.

As for ILFSLKPALDWDSVHVPGPHAMTI [P6K], the protein stability index worked out at 1.97.

For the variant ILFSLCPALDWDSVHVPGPHAMTI [P6C], the protein stability index turned out to be 2.37.

In the case of ILFSLPPALMWDSVHVPGPHAMTI [D10M], the protein stability index worked out at 3.42.

On to ILFSLPPALEWDSVHVPGPHAMTI [D10E], for which the protein stability index came to 1.63.

As for ILFSLPPALGWDSVHVPGPHAMTI [D10G], the protein stability index came to 2.28.

With ILFSLPPALLWDSVHVPGPHAMTI [D10L], the protein stability index was determined as 2.22.

On to ILFSLPPALFWDSVHVPGPHAMTI [D10F], for which the protein stability index was 2.68.

Take ILFSLPPALIWDSVHVPGPHAMTI [D10I]: the protein stability index turned out to be 2.2.

As to ILFSLPPALNWDSVHVPGPHAMTI [D10N], the protein stability index was determined as 1.73.

Take ILFSLPPALKWDSVHVPGPHAMTI [D10K]: the protein stability index amounted to 3.67.

On to ILFSLPPALAWDSVHVPGPHAMTI [D10A], for which the protein stability index was 2.86.

On to ILFSLPPALWWDSVHVPGPHAMTI [D10W], for which the protein stability index is 1.9.

Consider ILFSLPPALHWDSVHVPGPHAMTI [D10H], for which the protein stability index stood at 3.79.

For the variant ILFSLPPALTWDSVHVPGPHAMTI [D10T], the protein stability index was determined as 2.95.

As for ILFSLPPALVWDSVHVPGPHAMTI [D10V], the protein stability index was 2.05.

As for ILFSLPPALDWQSVHVPGPHAMTI [D12Q], the protein stability index worked out at 1.88.

For the variant ILFSLPPALDWNSVHVPGPHAMTI [D12N], the protein stability index amounted to 2.5.

On to ILFSLPPALDWPSVHVPGPHAMTI [D12P], for which the protein stability index amounted to 4.93.

Consider ILFSLPPALDWGSVHVPGPHAMTI [D12G], for which the protein stability index came to 1.97.

For the variant ILFSLPPALDWASVHVPGPHAMTI [D12A], the protein stability index amounted to 3.66.

In the case of ILFSLPPALDWISVHVPGPHAMTI [D12I], the protein stability index came to 4.7.

Turning to ILFSLPPALDWWSVHVPGPHAMTI [D12W], the protein stability index was 2.79.

With ILFSLPPALDWMSVHVPGPHAMTI [D12M], the protein stability index is 2.88.

As for ILFSLPPALDWTSVHVPGPHAMTI [D12T], the protein stability index came out at 2.37.

Regarding ILFSLPPALDWCSVHVPGPHAMTI [D12C], the protein stability index worked out at 2.75.

ILFSLPPALDWHSVHVPGPHAMTI [D12H]: the protein stability index is 2.07.

ILFSLPPALDWSSVHVPGPHAMTI [D12S]: the protein stability index stood at 3.29.

In the case of ILFSLPRALDWDSVHVPGPHAMTI [P7R], the protein stability index is 2.18.

For the variant ILFSLPEALDWDSVHVPGPHAMTI [P7E], the protein stability index is 2.43.

Take ILFSLPHALDWDSVHVPGPHAMTI [P7H]: the protein stability index came to 4.13.

Turning to ILFSLPCALDWDSVHVPGPHAMTI [P7C], the protein stability index was 2.03.

With ILFSLPNALDWDSVHVPGPHAMTI [P7N], the protein stability index stood at 2.98.

On to ILFSLPAALDWDSVHVPGPHAMTI [P7A], for which the protein stability index is 1.87.

As for ILFSLPQALDWDSVHVPGPHAMTI [P7Q], the protein stability index is 2.33.

Turning to ILFSLPVALDWDSVHVPGPHAMTI [P7V], the protein stability index was 4.23.

Consider ILFSLPFALDWDSVHVPGPHAMTI [P7F], for which the protein stability index amounted to 3.57.

Turning to ILFSLPIALDWDSVHVPGPHAMTI [P7I], the protein stability index came out at 2.49.

Turning to ILFSLPDALDWDSVHVPGPHAMTI [P7D], the protein stability index worked out at 1.01.

On to ILFSLPMALDWDSVHVPGPHAMTI [P7M], for which the protein stability index was found to be 1.68.

In the case of ILFSLPPALDWDSVDVPGPHAMTI [H15D], the protein stability index was determined as 2.08.

In the case of ILFSLPPALDWDSVSVPGPHAMTI [H15S], the protein stability index was determined as 1.85.

With ILFSLPPALDWDSVLVPGPHAMTI [H15L], the protein stability index turned out to be 4.13.

Consider ILFSLPPALDWDSVVVPGPHAMTI [H15V], for which the protein stability index was 3.57.

As for ILFSLPPALDWDSVTVPGPHAMTI [H15T], the protein stability index was 2.94.

ILFSLPPALDWDSVQVPGPHAMTI [H15Q]: the protein stability index stood at 1.81.

Turning to ILFSLPPALDWDSVCVPGPHAMTI [H15C], the protein stability index is 2.36.

Regarding ILFSLPPALDWDSVEVPGPHAMTI [H15E], the protein stability index came out at 2.

ILFSLPPALDWDSVAVPGPHAMTI [H15A]: the protein stability index stood at 3.31.

Take ILFSLPPALDWDSVKVPGPHAMTI [H15K]: the protein stability index worked out at 2.48.

Regarding ILFSLPPALDWDSVRVPGPHAMTI [H15R], the protein stability index is 1.44.

Consider ILFSLPPALDWDSVIVPGPHAMTI [H15I], for which the protein stability index is 2.88.

With ILFSLPPALDWDSVFVPGPHAMTI [H15F], the protein stability index is 2.99.

ILFSLPPALDWDSVYVPGPHAMTI [H15Y]: the protein stability index turned out to be 3.15.

On to ILFSLPPALDWDSVPVPGPHAMTI [H15P], for which the protein stability index came to 3.2.

With ILFSLPPALDWDSVGVPGPHAMTI [H15G], the protein stability index worked out at 2.83.
